Where a chain is given by its changes, count along the chain named.

This note sets out measurements from patent publication US20230041071A1 (NATIONAL INSTITUTE OF BIOLOGICAL SCIENCES BEIJING, published 2023).

For one test, the target named is T1, mAREG-EGFd-mFc (mouse, UniProt P31955 135-177).
T1 construct: also called EGF domain of mAREG (aa135-177) fused with mFc tag; not shown: mFc tag (Fc fragment of mouse IgG2a as for hAREG-EGFd-mFc)
T1 chain: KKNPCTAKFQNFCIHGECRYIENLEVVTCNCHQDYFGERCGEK
As to the kind of experiment: SPR (Biacore T200).

Another test has as its target T2, hAREG-E149K variant (human, UniProt P15514 142-184).
T2 construct: also called E149K variant of hAREG-EGFd
T2 chain: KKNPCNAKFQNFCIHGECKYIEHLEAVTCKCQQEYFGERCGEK
As to the kind of experiment: SPR (Biacore T200). A general note: In SPR one partner is held on a chip, and binding of the other changes the refractive index at the surface.

The target in another test is T3, hAREG-H164N variant (human, UniProt P15514 142-184).
T3 construct: also called H164N variant of hAREG-EGFd
T3 chain: T2 chain with K8E, H23N
As to the kind of experiment: SPR (Biacore T200).

The next test concerns the target T4, mAREG-N164H variant (mouse, UniProt P31955 135-177, limits assumed).
T4 construct: Position is in hAREG numbering
T4 chain: T1 chain with N23H
As to the kind of experiment: SPR (Biacore T200).

The target in the next test is T5, hAREG-EGFd-mFc (human; mouse, UniProt P15514 142-184).
T5 construct: Expressed in 293F cells; not shown: Fc fragment of mouse IgG2a
T5 chain: T2 chain with K8E
As to the kind of experiment: SPR, Biacore T200; mAb captured on anti-human Fc chip, antigen in solution. Here is the method:
(§1) To evaluate affinities of different mouse hybridoma mAbs or their humanized and engineered variants, SPR measurement was performed using Biacore T200 instrument. mAbs were captured on anti-human Fc CM5 biosensor chip surface, hAREG-EGFd-mFc, mAREG-EGFd-mFc or hAREG-98aa (purchased from PeproTech, cat #100-55B) in serial dilutions were injected over antibody-bound surface, followed by a dissociation phase. Association rates (Ka) and dissociation rates (Kd) were calculated using the one-to-one Langmuir binding model (BIA Evaluation Software, GE Life Sciences). The equilibrium dissociation constant (KD) was calculated as the ratio kd/ka.

Another test deals with T6, hAREG-98aa (human, UniProt P15514 101-198).
T6 construct: Bought protein
T6 sequence (looked up): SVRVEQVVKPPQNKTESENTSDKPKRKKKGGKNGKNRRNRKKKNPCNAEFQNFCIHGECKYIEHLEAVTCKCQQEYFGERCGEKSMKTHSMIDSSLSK
The description is as above. As for the experimental part: as §1

B1: hu9C12v6 (antibody, V domains shown)
VH: EVQLVESGGGLVKPGGSLRLSCAASGFTFSSYPMSWVRQAPEKGLEWVSTISTGGTYTYYPDSVKGRFTISRDNAKNSLYLQMNSLRAEDTAVYYCARQGPIYYGNYYYGMDVWGQGTTVTVSS
VL: DVVMTQSPLSLPVTLGDPASISCRSSQSLVNQEGETYLHWYQQRPGQSPKLLIYKVSNRFDGVPDRFSGSGSGTDFTLKISRVEAEDVGVYYCSQSTHVPYTFGQGTKLEIK
notes: Humanized 9C12 variant
Turning to B1, the binding result with mAREG-EGFd-mFc was “no binding”; with hAREG-E149K variant, “binds”; with hAREG-H164N variant, “no binding”; in the test with mAREG-N164H variant, “binds”. Moreover, the Kd stood at 0.398 nM with hAREG-EGFd-mFc and 0.188 nM in the test with hAREG-98aa. The off-rate constant (koff) with hAREG-EGFd-mFc was found to be 0.000389 s⁻¹; with hAREG-98aa it was 0.00457 s⁻¹. The kon with hAREG-EGFd-mFc was found to be 978000 M⁻¹ s⁻¹; in the test with hAREG-98aa, 2.43e+07 M⁻¹ s⁻¹.

Broadly, the Kd is the concentration at which binding is half-saturated. Read a low Kd as a tighter complex. A word on the koff: it is the rate constant with which the complex falls apart. By kon is commonly meant a measure of how fast the partners come together.
